Measured values from article PMC10707181, “Neuronal Scaffold Protein ARMS Interacts with Synaptotagmin-4 C2AB through the Ankyrin Repeat Domain with an Unexpected Mode” (International Journal of Molecular Sciences, 2023).

B1: Syt4 132–425 [human] / ARMS ankyrin repeats 1–11 (R1-11, residues 1–365) [rat] (parent)
chain 1: MSVLISQSVINYVEEENIPALKALLEKCKDVDERNECGQTPLMLAAEQGNVEIVKELLKNGANCNLEDLDNWTALISASKEGHIHIVEELLKSGASLEHRDMGGWTALMWACYKGRTDVVELLLSHGANPSVTGLYSVYPIIWAAGRGHADIVHLLLQNGAKVNCSDKYGTTPLVWAARKGHLECVKHLLAMGADVDQEGANSMTALIVAVKGGYTQSVKEILKRNPNVNLTDKDGNTALMIASKEGHIEIVQDLLDAGTYVNIPDRSGDTVLIGAVRGGHVEIVRALLQKYADIDIRGQDNKTALYWAVEKGNATMVRDILQCNPDTEICTKDGETPLIKATKMRNIEVVELLLDKGAKVSAVD
chain 2: ESVSPESLKSSTSLTSEEKQEKLGTLFFSLEYNFERKAFVVNIKEARGLPAMDEQSMTSDPYIKMTILPEKKHKVKTRVLRKTLDPAFDETFTFYGIPYTQIQELALHFTILSFDRFSRDDIIGEVLIPLSGIELSEGKMLMNREIIKRNVRKSSGRGELLISLCYQSTTNTLTVVVLKARHLPKSDVSGLSDPYVKVNLYHAKKRISKKKTHVKKCTPNAVFNELFVFDIPCEGLEDISVEFLVLDSERGSRNEVIGQLVLGAAAEGTGGEHWKEICDYPRRQIAKWHVLCDG

Variants of: B1
Experiment: ITC
Conditions: with ARMS ankyrin repeats 1–11 (R1-11, residues 1–365) [rat]

| Variant | ratio to parent |
| --- | --- |
| chain 2 ESVSPESLKSSTSLTSEEKQEKLGTLFFSLEYNFERKAFVVNIKEARGLPAMDEQSMTSDPYIKMTILPEKKHKVKTRVLRKTLDPAFDETFTFYGIPYTQIQELALHFTILSFDRFSRDDIIGEVLIPLSGIELSEGKMLMNREIIAANVRKSSGRGELLISLCYQSTTNTLTVVVLKARHLPKSDVSGLSDPYVKVNLYHAKKRISKKKTHVKKCTPNAVFNELFVFDIPCEGLEDISVEFLVLDSERGSRNEVIGQLVLGAAAEGTGGEHWKEICDYPRRQIAKWHVLCDG [chain 2 K148A R149A] | 0.8 |
| chain 2 ESVSPESLKSSTSLTSEEKQEKLGTLFFSLEYNFERKAFVVNIKEARGLPAMDEQSMTSDPYIKMTILPEKKHKVKTRVLRKTLDPAFDETFTFYGIPYTQIQELALHFTILSFDRFSRDDIIGEVLIPLSGIELSEGKMLMNREIIAANVAKSSGRGELLISLCYQSTTNTLTVVVLKARHLPKSDVSGLSDPYVKVNLYHAKKRISKKKTHVKKCTPNAVFNELFVFDIPCEGLEDISVEFLVLDSERGSRNEVIGQLVLGAAAEGTGGEHWKEICDYPRRQIAKWHVLCDG [chain 2 K148A R149A R152A] | 1.6 |
| chain 2 ESVSPESLKSSTSLTSEEKQEKLGTLFFSLEYNFERKAFVVNIKEARGLPAMDEQSMTSDPYIKMTILPEKKHKVKTRVLRKTLDPAFDETFTFYGIPYTQIQELALHFTILSFDRFSRDDIIGEVLIPLSGIELSEGKMLMNREIIKRNVRASSGRGELLISLCYQSTTNTLTVVVLKARHLPKSDVSGLSDPYVKVNLYHAKKRISKKKTHVKKCTPNAVFNELFVFDIPCEGLEDISVEFLVLDSERGSRNEVIGQLVLGAAAEGTGGEHWKEICDYPRRQIAKWHVLCDG [chain 2 K153A] | 0.3 |
| chain 2 ESVSPESLKSSTSLTSEEKQEKLGTLFFSLEYNFERKAFVVNIKEARGLPAMDEASMTSDPYIKMTILPEKKHKVKTRVLRKTLDPAFDETFTFYGIPYTQIQELALHFTILSFDRFSRDDIIGEVLIPLSGIELSEGKMLMNREIIKRNVRKSSGRGELLISLCYQSTTNTLTVVVLKARHLPKSDVSGLSDPYVKVNLYHAKKRISKKKTHVKKCTPNAVFNELFVFDIPCEGLEDISVEFLVLDSERGSRNEVIGQLVLGAAAEGTGGEHWKEICDYPRRQIAKWHVLCDG [chain 2 Q55A] | 0.3 |
| chain 2 ESVSPESLKSSTSLTSEEKQEKLGTLFFSLEYNFERKAFVVNIKEARGLPAMDEQSMTSDPYIKMTILPEKKHKVKTRVLRKTLDPAFDETFTFYGIPYTQIQELALHFTILSFDRFSRDDIIGEVLIPLSGIELSEGKMLMNREIIKRNVAKSSGRGELLISLCYQSTTNTLTVVVLKARHLPKSDVSGLSDPYVKVNLYHAKKRISKKKTHVKKCTPNAVFNELFVFDIPCEGLEDISVEFLVLDSERGSRNEVIGQLVLGAAAEGTGGEHWKEICDYPRRQIAKWHVLCDG [chain 2 R152A] | 0.3 |
| chain 2 ESVSPESLKSSTSLTSEEKQEKLGTLFFSLEYNFERKAFVVNIKEARGLPAMDEQSMTSDPYIKMTILPEKKHKVKTRVLRKTLDPAFDETFTFYGIPYTQIQELALHFTILSFDRFSRDDIIGEVLIPLSGIELSEGKMLMNREIIKRNVAASSGRGELLISLCYQSTTNTLTVVVLKARHLPKSDVSGLSDPYVKVNLYHAKKRISKKKTHVKKCTPNAVFNELFVFDIPCEGLEDISVEFLVLDSERGSRNEVIGQLVLGAAAEGTGGEHWKEICDYPRRQIAKWHVLCDG [chain 2 R152A K153A] | 0.3 |
| chain 2 ESVSPESLKSSTSLTSEEKQEKLGTLFFSLEYNFERKAFVVNIKEARGLPAMDEQSMTSDPYIKMTILPEKKHKVKTRVLRKTLDPAFDETFTFYGIPYTQIQELALHFTILSFDRFSRDDIIGEVLIPLSGIELSEGKMLMNREIIKRNVRKSSGAGELLISLCYQSTTNTLTVVVLKARHLPKSDVSGLSDPYVKVNLYHAKKRISKKKTHVKKCTPNAVFNELFVFDIPCEGLEDISVEFLVLDSERGSRNEVIGQLVLGAAAEGTGGEHWKEICDYPRRQIAKWHVLCDG [chain 2 R157A] | 0.8 |

Same assay, conditions: with Syt4 132–425 [human]

| Variant | ratio to parent |
| --- | --- |
| chain 1 MSVLISQSVINYVEEENIPALKALLEKCKDVDERNECGQTPLMLAAEQGNVEIVKELLKNGANCNLEDLDNWTALISASKEGHIHIVEELLKSGASLEHRDMGGWTALMWACYKGRTDVVELLLSHGANPSVTGLYSVYPIIWAAGRGHADIVHLLLQNGAKVNCSDKYGTTPLVWAARAGHLECVKHLLAMGADVDQEGANSMTALIVAVKGGYTQSVKEILKRNPNVNLTDKDGNTALMIASKEGHIEIVQDLLDAGTYVNIPDRSGDTVLIGAVRGGHVEIVRALLQKYADIDIRGQDNKTALYWAVEKGNATMVRDILQCNPDTEICTKDGETPLIKATKMRNIEVVELLLDKGAKVSAVD [chain 1 K180A] | 0.9 |
